This is an account of results in paper PMC7152990, “Plasmon-Emitter Hybrid Nanostructures of Gold Nanorod-Quantum Dots with Regulated Energy Transfer as a Universal Nano-Sensor for One-Step Biomarker Detection”.

This series has as its target T1, alpha fetoprotein (AFP) (human, UniProt P02771 19-609).
T1 sequence: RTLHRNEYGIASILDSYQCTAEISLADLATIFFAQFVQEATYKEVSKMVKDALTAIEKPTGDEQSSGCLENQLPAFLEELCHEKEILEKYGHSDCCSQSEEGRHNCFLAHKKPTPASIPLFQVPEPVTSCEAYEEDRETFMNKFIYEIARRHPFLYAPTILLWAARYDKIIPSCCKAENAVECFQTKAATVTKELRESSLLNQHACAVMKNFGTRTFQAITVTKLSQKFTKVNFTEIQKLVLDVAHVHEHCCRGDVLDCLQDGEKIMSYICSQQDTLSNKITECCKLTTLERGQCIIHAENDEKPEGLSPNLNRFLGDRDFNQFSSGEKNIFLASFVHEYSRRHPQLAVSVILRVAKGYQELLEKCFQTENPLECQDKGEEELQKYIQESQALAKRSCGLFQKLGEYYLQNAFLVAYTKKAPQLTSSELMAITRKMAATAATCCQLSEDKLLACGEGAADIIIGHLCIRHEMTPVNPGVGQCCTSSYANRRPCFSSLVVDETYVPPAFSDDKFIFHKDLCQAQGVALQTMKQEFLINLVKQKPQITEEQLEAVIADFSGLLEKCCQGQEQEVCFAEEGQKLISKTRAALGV
Description: plasmon-regulated FRET / LSPR shift aptasensor (Au NR-QDs); 20 ng/mL AFP; LSPR redshift 1.2 nm, fluorescence decrease ~18%; sensor LOD 0.30 ng/mL (not a Kd); aptamer immobilized on Au NR-QDs via glutaraldehyde (room temperature, 2 h, water); AFP binding buffer, pH and temperature not given in the material. As to conditions: protein: commercial.

B1: AFP aptamer (ssDNA)
DNA: GTGACGCTCCTAACGCTGACTCAGGTGCAGTTCTCGACTCGGTCTTGATGTGGGTCCTGTCCGTCCGAACCAATC
modifications: 5'-NH2
As for B1, the binding result is given as “binds”.
